From the supplement of paper PMC11246515
± gives the standard deviation of the averaged measurements.

Assay: total protein half-life in vivo (active degradation + dilution); higher = more stable protein
[1] = E. coli NCM3722 delta-clpP delta-lon delta-hslV, growth: N-lim chemostat, doubling time 6 h
[2] = E. coli NCM3722 delta-clpP, growth: N-lim chemostat, doubling time 6 h
[3] = E. coli NCM3722 delta-hslV, growth: N-lim chemostat, doubling time 6 h
[4] = E. coli NCM3722 delta-lon, growth: N-lim chemostat, doubling time 6 h
[5] = E. coli NCM3722 delta-smpB, growth: N-lim chemostat, doubling time 6 h
[6] = wild type E. coli NCM3722, growth: C-lim chemostat, doubling time 6 h
[7] = wild type E. coli NCM3722, growth: C-lim chemostat, doubling time 12 h
[8] = wild type E. coli NCM3722, growth: N-lim chemostat, doubling time 6 h
[9] = wild type E. coli NCM3722, growth: N-lim chemostat, doubling time 12 h
[10] = wild type E. coli NCM3722, growth: P-lim chemostat, doubling time 6 h
[11] = wild type E. coli NCM3722, growth: P-lim chemostat, doubling time 12 h
[12] = wild type E. coli NCM3722, growth: C-lim chemostat, doubling time 3 h

| Sequence | total protein half-life in vivo [1] [h] | total protein half-life in vivo [2] [h] | total protein half-life in vivo [3] [h] | total protein half-life in vivo [4] [h] | total protein half-life in vivo [5] [h] | total protein half-life in vivo [6] [h] | total protein half-life in vivo [7] [h] | total protein half-life in vivo [8] [h] | total protein half-life in vivo [9] [h] | total protein half-life in vivo [10] [h] | total protein half-life in vivo [11] [h] | total protein half-life in vivo [12] [h] |
| --- | --- | --- | --- | --- | --- | --- | --- | --- | --- | --- | --- | --- |
| MLDANKLQQAVDQAYTQFHSLNGGQNADYIPFLANVPGQLAAVAIVTCDGNVYSAGDSDYRFALESISKVCTLALALEDVGPQAVQDKIGADPTGLPFNSVIALELHGGKPLSPLVNAGAIATTSLINAENVEQRWQRILHIQQQLAGEQVALSDEVNQSEQTTNFHNRAIAWLLYSAGYLYCDAMEACDVYTRQCSTLLNTIELATLGATLAAGGVNPLTHKRVLQADNVPYILAEMMMEGLYGRSGDWAYRVGLPGKSGVGGGILAVVPGVMGIAAFSPPLDEDGNSVRGQKMVASVAKQLGYNVFKG | 5.46 ± 0.86 | 5.64 ± 1.6 | 4.65 ± 0.16 | 4.81 ± 0.26 | 4.57 ± 0.085 | > 8 | 10.1 | 4.75 ± 0.39 | 7.14 ± 2.3 | 6.4 ± 0.21 | 12.4 ± 0.65 | – |
| MQENSPLLQLQNVGYLAGDAKILNNINFSLRAGEFKLITGPSGCGKSTLLKIVASLISPTSGTLLFEGEDVSTLKPEIYRQQVSYCAQTPTLFGDTVYDNLIFPWQIRNRQPDPAIFLDFLERFALPDSILTKNIAELSGGEKQRISLIRNLQFMPKVLLLDEITSALDESNKHNVNEMIHRYVREQNIAVLWVTHDKDEINHADKVITLQPHAGEMQEARYELA | 5.05 ± 0.21 | 5 ± 0.8 | 5.16 ± 0.41 | 4.59 ± 0.41 | 6.21 ± 1.8 | 6.58 ± 0.68 | 9.76 | 5.2 ± 0.14 | 9.23 ± 0.8 | 5.43 ± 0.2 | 11.7 ± 1.6 | 2.7 ± 0.38 |
| MKKWSRHLLAAGALALGMSAAHADDNNTLYFYNWTEYVPPGLLEQFTKETGIKVIYSTYESNETMYAKLKTYKDGAYDLVVPSTYYVDKMRKEGMIQKIDKSKLTNFSNLDPDMLNKPFDPNNDYSIPYIWGATAIGVNGDAVDPKSVTSWADLWKPEYKGSLLLTDDAREVFQMALRKLGYSGNTTDPKEIEAAYNELKKLMPNVAAFNSDNPANPYMEGEVNLGMIWNGSAFVARQAGTPIDVVWPKEGGIFWMDSLAIPANAKNKEGALKLINFLLRPDVAKQVAETIGYPTPNLAARKLLSPEVANDKTLYPDAETIKNGEWQNDVGAASSIYEEYYQKLKAGR [P0AFK9] | – | 5.36 ± 0.48 | 6.46 ± 0.61 | 6.271 ± 0.061 | 5.94 ± 0.35 | 6.44 ± 0.57 | 13.6 ± 0.72 | 6.07 ± 0.22 | 11.99 ± 0.032 | 5.59 ± 0.35 | 12.5 ± 0.19 | 3.44 ± 0.58 |
| MNLKLQLKILSFLQFCLWGSWLTTLGSYMFVTLKFDGASIGAVYSSLGIAAVFMPALLGIVADKWLSAKWVYAICHTIGAITLFMAAQVTTPEAMFLVILINSFAYMPTLGLINTISYYRLQNAGMDIVTDFPPIRIWGTIGFIMAMWVVSLSGFELSHMQLYIGAALSAILVLFTLTLPHIPVAKQQANQSWTTLLGLDAFALFKNKRMAIFFIFSMLLGAELQITNMFGNTFLHSFDKDPMFASSFIVQHASIIMSISQISETLFILTIPFFLSRYGIKNVMMISIVAWILRFALFAYGDPTPFGTVLLVLSMIVYGCAFDFFNISGSVFVEKEVSPAIRASAQGMFLMMTNGFGCILGGIVSGKVVEMYTQNGITDWQTVWLIFAGYSVVLAFAFMAMFKYKHVRVPTGTQTVSH [P0AFF4] | – | – | > 8 | – | – | 6.63 | 10.8 ± 2.5 | – | 4.5 | – | – | 1.79 |
| MKFTQRLSLRVRLTLIFLILASVTWLLSSFVAWKQTTDNVDELFDTQLMLFAKRLSTLDLNEINAADRMAQTPNRLKHGHVDDDALTFAIFTHDGRMVLNDGDNGEDIPYSYQREGFADGQLVGEDDPWRFVWMTSPDGKYRIVVGQEWEYREDMALAIVAGQLIPWLVALPIMLIIMMVLLGRELAPLNKLALALRMRDPDSEKPLNATGVPSEVRPLVESLNQLFARTHAMMVRERRFTSDAAHELRSPLTALKVQTEVAQLSDDDPQARKKALLQLHSGIDRATRLVDQLLTLSRLDSLDNLQDVAEIPLEDLLQSSVMDIYHTAQQAKIDVRLTLNAHSIKRTGQPLLLSLLVRNLLDNAVRYSPQGSVVDVTLNADNFIVRDNGPGVTPEALARIGERFYRPPGQTATGSGLGLSIVQRIAKLHGMNVEFGNAEQGGFEAKVSW | 5.9 ± 0.21 | 6.26 ± 0.56 | 6.38 ± 0.11 | – | 5.66 ± 0.13 | – | 14.6 ± 1.6 | 5.98 ± 0.52 | 14.08 ± 0.14 | 6.13 ± 0.39 | 12.4 ± 3.3 | 3.19 |
| MAAVNLRHIEIFHAVMTAGSLTEAAHLLHTSQPTVSRELARFEKVIGLKLFERVRGRLHPTVQGLRLFEEVQRSWYGLDRIVSAAESLREFRQGELSIACLPVFSQSFLPQLLQPFLARYPDVSLNIVPQESPLLEEWLSAQRHDLGLTETLHTPAGTERTELLSLDEVCVLPPGHPLAVKKVLTPDDFQGENYISLSRTDSYRQLLDQLFTEHQVKRRMIVETHSAASVCAMVRAGVGISVVNPLTALDYAASGLVVRRFSIAVPFTVSLIRPLHRPSSALVQAFSGHLQAGLPKLVTSLDAILSSATTA | 7.04 ± 0.23 | 4.89 | – | – | 5.18 ± 2.1 | 6.28 | 11.805 ± 0.0096 | 5.91 ± 0.071 | > 16 | – | 13.1 ± 0.34 | 3.2 ± 0.26 |
